According to paper PMC9154745:

Biological target: human cannabinoid receptor type 2 (CB2) (human) (UniProt P34972)
UniProt P34972, sequence (P34972 whole entry): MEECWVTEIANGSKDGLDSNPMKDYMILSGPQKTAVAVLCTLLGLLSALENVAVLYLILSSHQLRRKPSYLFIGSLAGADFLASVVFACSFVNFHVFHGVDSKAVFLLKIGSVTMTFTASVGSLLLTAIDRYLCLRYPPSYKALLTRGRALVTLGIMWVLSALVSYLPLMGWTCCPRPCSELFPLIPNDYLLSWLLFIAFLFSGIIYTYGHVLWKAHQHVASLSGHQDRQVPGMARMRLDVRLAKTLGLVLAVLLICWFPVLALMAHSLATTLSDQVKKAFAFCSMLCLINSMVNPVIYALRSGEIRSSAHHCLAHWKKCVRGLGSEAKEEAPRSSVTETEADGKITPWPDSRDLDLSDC

osteogenic growth peptide (OGP), the 5-amino-acid cellular activator derived from OGP(1-14) (from UniProt P62805 99-103)
logEC50 of half-maximal inhibition of FSK-stimulated cAMP in CHO-hCB2 cells (bell-shaped dose-response curve, two independent experiments): -12.1
